Residue numbers refer to the chain shown, from its start.
B1: 05_C07 (antibody, V domains shown)
VH: HVQLWQSGAEVKKPGASVKISCSAWGFGTRSGYTFRDYRIHWVRQVPRQGFEWMGHLHPAYGAVNYARQFQGRIIMTREVSFDGSGGTVYMELRSLRSDDTATYYCVTHKLYDGEDASDLTWRLDPWGQGTRVTVSS
VL: GVSLTQSPASLCASVGDRVTFTCQASQDITNAINWYQLRPGKTPKLMIHDGSTLRRGVPSRFAGSGFGTRFTFTIDNLQPEDLATYFCQHYEFFPPAGTQVDFN
B2: 01_B01 (antibody, V domains shown)
VH: HVQLWQSGAEVKKPGASVKISCAAWGFGTTSGYSFRDYRIHWVRQVPGQGFQWMGHIQPRYGAVNYAHQFQGRITMTREVSFDASGGTAYMELRSLRSDDTATYYCVTHKLYDGEDASDLAWRLDPWGQGTRVTVSS
VL: B1 VL with S3H, C12S, S65G, R70K, D102E, F103L
B3: 01_D03 (antibody, V domains shown)
VH: B2 VH with A23S, I40V, Q45H, V46I, P47A, I57M, H68R, T103V, A121T, T134I
VL: B1 VL with S3H, C12S, R70K, A97V, D102E, F103L
B4: 04_A06 (antibody, V domains shown)
VH: SVRLDQSGTAVKKPGASVRVSCRAPDSFTVYRPRLSAYFIGEFNIHWLRQAPGQGLEWLGFVNIFRGAVKYSSRFQGRITITRDTSSETSYLDLGALKADDTATYYCAWDKNVDDNPWRLDSWGQGTLVIVSS
VL: YIQVTQSPSSLSASIGDTITVACEVSQDVGWAVNWYHQRPGRPPYNLIYTAHNLAPGVASRFRGSRVGTYFTLTINNLLPEDVGTYYCQVFDSFAPGGTRVDLR
B5: 04_B09 (antibody, V domains shown)
VH: B4 VH with R74A, Q76R, S87L, A99P, Y106F, I130V
VL: B4 VL with I15V, E24Q, A51T, H52S, S65T, G68A, D92E

Tests used:
[1] = molecular target: HIV-1 envelope proteins of the panel of 12 global reference pseudovirus strains of HIV-1 ("global panel")
[2] = molecular target: HIV-1 envelope proteins of the panel of 8 pseudoviruses insensitive against neutralization by CD4bs bNAbs (constituents of the 119 multiclade panel)
[3] = molecular target: HIV-1 envelope proteins of the panel of 100 clade C HIV-1 pseudoviruses (Subtype C panel)
[4] = molecular target: HIV-1 envelope proteins of the panel of 7 pseudoviruses selected from the "Resistant panel to CD4bs bNAbs"
[5] = molecular target: HIV-1 envelope proteins of the panel of 9 pseudoviruses resistant against CD4bs bNAbs (constituents of the 119 multiclade and Subtype C panels)
[6] = molecular target: HIV-1 envelope proteins of the multiclade panel of 119 pseudoviruses
[7] = molecular target: HIV-1 envelope proteins of the panel of 185 pseudoviruses generated from virus sequences obtained from the Antibody Mediated Prevention (AMP) trials

Binder | geometric mean IC50, TZM-bl cell pseudovirus neutralization assay [1] [mg/L] | neutralizing activity, TZM-bl cell pseudovirus neutralization assay (breadth) [1] [%] | also measured
B1 | < 0.05 | 100 | 
B2 | < 0.05 | 100 | 
B3 | 0.021 | 100 | neutralizing activity, TZM-bl cell pseudovirus neutralization assay (breadth) [2]: 88%
B4 | 0.038 | 100 | geometric mean IC50, TZM-bl cell pseudovirus neutralization assay [3]: 0.057 mg/L; neutralizing activity, TZM-bl cell pseudovirus neutralization assay (breadth) [3]: 99%; IC50, TZM-bl cell pseudovirus neutralization assay [4]: 0.153 mg/L; neutralizing activity, TZM-bl cell pseudovirus neutralization assay (breadth) [4]: 86%; neutralizing activity, TZM-bl cell pseudovirus neutralization assay (breadth) [5]: 100%; geometric mean IC50, TZM-bl cell pseudovirus neutralization assay [6]: 0.036 mg/L; neutralizing activity, TZM-bl cell pseudovirus neutralization assay (breadth) [6]: 99%; GeoMean IC50, TZM-bl cell pseudovirus neutralization assay [7]: 0.084 mg/L; neutralizing activity, TZM-bl cell pseudovirus neutralization assay (breadth) [7]: < 98%
B5 | < 0.05 | 100 | 

Source: US20260242450A1
